The results in this text go back to the DeepSol protein solubility set.

A short description of this series: soluble on expression in E. coli; label from the status in PepcDB or PDB records.
For “MRYDVSSNSLYVFCSIVLFSDLRFRIGGKYMAERHMFLKKDPSKENSIIVSNIPAFVGEGVVLAIIDQFASFEVEESFVQRSNTADNSLSQGQLTMSITFDKPEAVIQTLALCQDVGPFTITDFLEDPEFPSVLKDSTTLYRKLFPSEEQIQEMADTYVERYDTEQTEARKEAKRKYSEPDEDGWITVTKAKKAAKSVKLKKEDVPLIGGLNNKKKKVDLAYYTFQIKKNRQEKAQELLKKFEEDRKRITQLKQARNFKPI”, the “soluble on expression in E. coli” value is recorded as “not soluble”.

Regarding “MAGQADNRAPYAKIAAHYTELITSGQLQPGSLLPSIKNLAEEWNVSTATAEKALRKLRNEGLVRGIHGIGTEVLDQPAPMSSGAQRQDRGRRTGSSWGAGERSDSHKAAVVPAPAEVAHALDIEPGSDVIRRSRVYRDRHGIVAHSTSWIPARFGRLIPQLAASERLTGGTSLQLIAQVTGHPITHRVDSASARLLTPEYTRLLELDPENPPAEPVVVMTAKFVDSEGTVVEYGVDLGGPGRTWRTESEVTQ”, the “soluble on expression in E. coli” value was “soluble”.

“TRNVTWNIGFNATHYRNKISRLAESKKTDIIDGHAGYVNGLYYYGEGLPMYTNYVQKYAGVSEEGKPQWYYTDKQTGEMKTTTTYSQADLYLCGDAVPDLYGGINTSLSFYGFDFSTQINYSIGGQAYDYGYQALMSPPTSTHLGYNVHKDIYKAWSPENTQSDIPQWQFNDLYSVKTSDRFLTNASSISIQNIQLGYTFSKKTLRSLYLTNLRIYVACDNVYYWSKRKGFDSRVTWNGNKDSSGEYSAVRAFSAGLSLQF”: the “soluble on expression in E. coli” value was “not soluble”.

For the sequence “MSLQFIGAGLGRTGTLSLKLALERLGVGRCYHAMELAANLRQDLPQWESAIDGRPDWDRIFAGYAATTDYPGCCFWMELAARYPHAKVILTVRDPDAWFDSVSATIFSGSNNLPSLFGSRGQRLSQFLRRDLGARLGERAFMTDYFRRWNQAVITHIPAPRLLVLDTDTESSWERLCAFLALPVPAFPYPRVHMRGASVPQRPLPTEPALIEQRMRTYLDRLAEEAFAPPTAPLEHHHHHH”, the “soluble on expression in E. coli” value is “soluble”.

Turning to “SLETFHFNYTLISICIYLYIYDGSFISLSEDHKPYNKKEKERIYKIGGFVENGRILGYIGVSRSFGDKNYKIKSDCPYNPHETMISCIPDIKIFYANCDDILFLGCDGLFEMLSWNDVAKFTYDCMNRHTLSDAVINILDYALLSGSKDNITIQIIKFFNE”, the “soluble on expression in E. coli” value is on record as “soluble”.

Turning to “MSFSGVKVSPECLEAFQELKLGKSLRYVVFKMNDTKTEIVVEKKSTDKDFDTFLGDLPEKDCRYAIYDFEFNLGEGVRNKIIFISWSPDVAPIKSKMVYSSSKDTLRRAFTGIGTDIQATDFSEVAYETVLEKVTRK”, the “soluble on expression in E. coli” value is recorded as “soluble”.

Take “PDVDGMITLKVDNLTYRTSPDSLRRVFEKYGRVGDVYIPREPHTKAPRGFAFVRFHDRRDAQDAEAAMDGAELDGRELRVQVARYGRRDL”: the “soluble on expression in E. coli” value was “soluble”.

As for “MNPLKAGDIAPKFSLPDQDGEQVNLTDFQGQRVLVYFYPKAMTPGCTVQACGLRDNMDELKKAGVDVLGISTDKPEKLSRFAEKELLNFTLLSDEDHQVCEQFGVWGEKSFMGKTYDGIHRISFLIDADGKIEHVFDDFKTSNHHDVVLNWLKEHA”, the “soluble on expression in E. coli” value was “soluble”.

Turning to “MSLEYFDMRKMSVNLWRNAAGETREICTFPPAKRDFYWRASITSIAANGEFSLFPGMERIVTLLEGGEMFLESADRFNHTLKPLQPFSFAADLVVKAKLTAGQMSMDFNIMTRLDVCKAKVRIAERTFTTFGSRGGVVFVINGAWQLGDKLLTTDQGACWFDGRHTLRLLQPQGKLLFSEINWLAGHSEGHHHHHH”, the “soluble on expression in E. coli” value is on record as “not soluble”.

In the case of “MNTLEKIQKNLENFSKSERKVAEVIMASPQTAIHSSIATLAKMADVSEPTVNRFCRRLDTKGFPDFKLHLAQSLANGTPYVNRNVEEDDGPDAYTHKIFESTMACLDVAKNSLDPMQVNRAVDLLTQAKRISFFGLGASSSVARDAQNKFIRFNIPITCFEDIVMQRMSCINCSDNDVIVLISHTGRTKSQVEIANLARENGATVIAITAKDSPLEKASSLAITLDIPEDTDVYMPMASRVVQMTVIDVLATGFTLRRGTGFRENLKRVKDALKDSRYDKLSQY”, the “soluble on expression in E. coli” value is given as “not soluble”.

“MLWWEEVEDSYEREDVQKKTFTKWVNAQFSKFGKQHIENLFSDLQDGRRLLDLLEGLTGQKLPKEKGSTRVHALNNVNKALRVLQNNNVDLVNIGSTDIVDGNHKLTLGLIWNIILHWQVKNVMKNIMAGLQQTNSEKILLSWVRQSTRNYPQVNVINFTTSWSDGLALNALIHSHRPDLFDWNSVVSQQSATQRLEHAFNIARYQLGIEKLLDPEDVDTTYPDKKSILMYITSLFQVLPQQVSIE”: the “soluble on expression in E. coli” value is “soluble”.
